These results are taken from patent publication US10889618B2, “D-enantiomeric peptides derived from D3 and use thereof” (FORSCHUNGSZENTRUM JUELICH GMBH, priority 2012, dated 2021).

“Also recorded” adds a separate entry of the source. Non-standard residues stand in square brackets, D forms with d. No end group written: not given here.

One assay deals with T1, A-beta1-42 (Homo sapiens, UniProt P05067).
T1 construct: overlayed with 100 μl of a 80 μM A-beta1-42 solution
The experiment in a line: Density gradient centrifugation (iodixanol): modulation of A-beta1-42 aggregation behavior. It counts as biochemical. Particulars: for Effect on A-beta aggregation (distribution of A-beta over gradient fractions): 80 μM A-beta1-42, 20 μM peptide, 259,000×g, 3 h, 4° C., SDS-PAGE, silver staining; for Peptide bound in fraction 12 [%]: FITC-labelled peptide, amount of dye in fraction 12 of the iodixanol gradient, estimate of binding to / precipitation of A-beta oligomers. The text has this: The effects of the peptides described in the table on A-beta aggregation were investigated by means of density gradient centrifugation. Thus, A-beta was mixed with the respective peptide and the particles formed are separated according to size. The sample to be investigated was placed on the surface of the centrifuge tube in which a density gradient was charged, which consisted of layers of different iodixanol concentrations in this example. During the several hours of separation, the molecules sediment at different rates in the solvent, namely, more rapidly the larger the particles. The centrifugation is terminated at a suitable time point and different constituents of the sample are obtained in the various layers which are analyzed by SDS-PAGE. A-beta without addition of peptide served as control.
This changes on addition of RD2. […] Large aggregates are formed which are detectable in fractions 10-15. […] All D-enantiomeric peptides which were characterized with A-beta using the method mentioned above were labelled with FITC. The amount of dye detectable in fraction 12 was used to estimate the binding strength of the respective D3 derivative to A-beta oligomers or the oligomer precipitating effects thereof in vitro. It was shown that the peptide RD2 especially has a significant effect on A-beta aggregation compared to D3.
FIG. 1: Modulation of the A-beta1-42 aggregation behavior by RD2, analzyed by an iodixanol density gradient. The iodixanol gradient was overlayed with 100 μl of a 80 μM A-beta1-42 solution and 100 μl of a 80 μM A-beta and 20 μM RD2 mixture. The mixture was then centrifuged at 259,000×g for 3 h at 4° C. The 15 fractions (fraction 15 is the pellet boiled with the loading buffer) were harvested manually immediately after the centrifugation and analyzed by Tris-Tricin-SDS-PAGE followed by silver staining.

The next assay concerns the target A-beta oligomers (Homo sapiens, UniProt P05067). The settings on record: D3 in higher concentrations (than 20 μM); cited from earlier work.

T1 sequence (P05067 672-713): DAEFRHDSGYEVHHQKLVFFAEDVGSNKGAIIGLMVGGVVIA
Chain of A-beta oligomers (P05067 672-713 limits assumed): as the sequence (P05067 672-713) above

On to “rprtrlhthrnr ([dR][dP][dR][dT][dR][dL][dH][dT][dH][dR][dN][dR]) [Peptide D3, D-enantiomeric D-peptide D3, parent peptide used as comparison, reference compound]”, for which, in the assay with A-beta1-42, the “Effect on A-beta aggregation (distribution of A-beta over gradient fractions)” value is on record as “no change was apparent; also recorded: no effect” and the “Peptide bound in fraction 12 [%]” value is 4%. Further, in the assay with A-beta oligomers, the “Precipitation of A-beta oligomers” value is “precipitates A-beta oligomers and converts them into large, amorphous and non-toxic aggregates”.
As for “ptlhthnrrrrr ([dP][dT][dL][dH][dT][dH][dN][dR][dR][dR][dR][dR]) [RD2, D3 derivative, rational D3]”, in the assay with A-beta1-42, the “Effect on A-beta aggregation (distribution of A-beta over gradient fractions)” value is reported as “fewer A-beta oligomers could be detected in the fractions 3-9” and the “Peptide bound in fraction 12 [%]” value was 20%.
As for “rprtrlrnr ([dR][dP][dR][dT][dR][dL][dR][dN][dR]) [Peptide D3Δhth, D3 with deletion hth]”, in the assay with A-beta1-42, the “Peptide bound in fraction 12 [%]” value is 2%.
The same measure, in the same setting: then “rprtrl ([dR][dP][dR][dT][dR][dL]) [NT-D3, D3 derivative, D3-N-Terminus]”, with 0%; and “pnhhrrrrrttl ([dP][dN][dH][dH][dR][dR][dR][dR][dR][dT][dT][dL]) [RD1, D3 derivative, rational D3]”, with 3%.
For “rrptlrhthnrr ([dR][dR][dP][dT][dL][dR][dH][dT][dH][dN][dR][dR]) [RD3, D3 derivative, rational D3]”, the “Peptide bound in fraction 12 [%]” value with A-beta1-42 is on record as 4%.
